Data on two proteins can be found in publication PMC4063181 (Journal of the American Chemical Society, 2014).

By stoichiometry N is commonly meant a count of units in the complex or per binding partner.

The series “cross-linking” deals with the molecule itself. The series is described as follows: cross-linking.
The series “solution NMR” deals with the molecule itself. Nature of the series: solution NMR.

B1: EmrE S107C mutant devoid of wild-type Cys residues (C39S, C41S, C95S, S107C) (natural protein)
chain: MNPYIYLGGAILAEVIGTTLMKFSEGFTRLWPSVGTIISYSASFWLLAQTLAYIPTGIAYAIWSGVGIVLISLLSWGFFGQRLDLPAIIGMMLISAGVLIINLLSRCTPH
Take B1: the “stoichiometry N” value in the series “cross-linking” was 2.

B2: EmrE (wild type) (natural protein)
chain: MNPYIYLGGAILAEVIGTTLMKFSEGFTRLWPSVGTIICYCASFWLLAQTLAYIPTGIAYAIWSGVGIVLISLLSWGFFGQRLDLPAIIGMMLICAGVLIINLLSRSTPH
As for B2, in the series “solution NMR”, the binding result is “binds”.
